From patent CN105542008A (UNIV NANCHANG, dated 2016) come the findings set out here.

Assay [1] has as its target T1, 前列腺特异性膜抗原 (PSMA) on LNCaP cells (UniProt Q04609 1-750, limits assumed).
T1 construct: whole, on cells; also called LNCaP细胞(表达PSMA)
The experiment in a line: cell ELISA (HRP-anti-M13) and immunofluorescence on fixed LNCaP cells, with PSMA-negative MKN45 cells as comparison. For orientation: In an ELISA, binding on a coated surface is turned into a signal by an enzyme label.

For the next assay, the target named is T2, 重组表达的PSMA胞外区蛋白 (UniProt Q04609 44-750, limits assumed).
T2 construct: extracellular domain; also called 前列腺特异性膜抗原膜外区; PSMA蛋白; not shown: His tag (purified on HisTrap, detected with anti-His antibody)
T2 sequence (Q04609 44-750 limits assumed): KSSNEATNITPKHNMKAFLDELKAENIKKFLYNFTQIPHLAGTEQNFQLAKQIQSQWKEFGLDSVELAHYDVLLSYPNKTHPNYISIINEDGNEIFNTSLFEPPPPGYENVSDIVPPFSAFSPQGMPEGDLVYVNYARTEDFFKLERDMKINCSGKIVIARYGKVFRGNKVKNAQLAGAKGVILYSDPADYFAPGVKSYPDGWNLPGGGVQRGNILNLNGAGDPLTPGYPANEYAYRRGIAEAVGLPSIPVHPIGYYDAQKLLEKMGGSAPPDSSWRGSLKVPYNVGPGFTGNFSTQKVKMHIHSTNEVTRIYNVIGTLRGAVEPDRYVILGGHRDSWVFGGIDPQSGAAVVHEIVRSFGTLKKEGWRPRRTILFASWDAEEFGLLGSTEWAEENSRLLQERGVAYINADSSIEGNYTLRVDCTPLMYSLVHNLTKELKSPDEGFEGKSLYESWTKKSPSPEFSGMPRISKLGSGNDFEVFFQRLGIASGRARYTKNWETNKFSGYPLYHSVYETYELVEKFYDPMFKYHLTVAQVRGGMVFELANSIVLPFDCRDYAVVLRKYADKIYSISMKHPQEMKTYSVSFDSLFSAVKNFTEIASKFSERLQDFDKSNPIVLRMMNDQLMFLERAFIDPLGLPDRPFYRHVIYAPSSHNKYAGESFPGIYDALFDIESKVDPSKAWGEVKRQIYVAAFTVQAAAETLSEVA
The experiment in a line: indirect phage-ELISA, PSMA extracellular domain coated at 5 μg/mL, HRP-anti-M13 detection.

T1 sequence (Q04609 whole entry): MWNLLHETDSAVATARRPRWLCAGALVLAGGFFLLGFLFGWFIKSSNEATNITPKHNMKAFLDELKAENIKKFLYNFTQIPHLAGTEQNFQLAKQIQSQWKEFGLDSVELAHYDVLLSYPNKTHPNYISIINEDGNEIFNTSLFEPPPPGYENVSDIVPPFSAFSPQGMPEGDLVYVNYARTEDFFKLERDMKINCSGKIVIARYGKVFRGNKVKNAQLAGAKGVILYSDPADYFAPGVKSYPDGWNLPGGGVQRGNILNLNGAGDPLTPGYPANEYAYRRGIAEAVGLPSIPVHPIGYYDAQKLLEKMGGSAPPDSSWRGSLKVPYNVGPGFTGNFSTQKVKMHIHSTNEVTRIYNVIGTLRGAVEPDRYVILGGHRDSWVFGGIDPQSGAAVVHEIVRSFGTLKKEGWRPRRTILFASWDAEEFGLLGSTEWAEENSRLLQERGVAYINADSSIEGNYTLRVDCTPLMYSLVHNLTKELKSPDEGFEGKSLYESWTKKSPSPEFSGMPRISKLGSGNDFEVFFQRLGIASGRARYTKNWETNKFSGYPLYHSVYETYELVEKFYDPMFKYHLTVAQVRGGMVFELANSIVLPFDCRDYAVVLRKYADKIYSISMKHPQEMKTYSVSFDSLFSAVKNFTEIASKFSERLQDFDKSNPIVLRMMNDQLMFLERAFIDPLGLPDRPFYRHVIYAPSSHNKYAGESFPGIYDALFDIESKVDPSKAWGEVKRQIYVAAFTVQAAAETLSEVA

B1: 抗前列腺特异性膜抗原单域重链抗体噬菌体阳性克隆 (VHH)
VHH: QLQLVESGGGLVQPGGSLRLTCTTSGFSLRYHDIGWFRQAPGKEREGVSCITGSLGDPYVDESLQGRFTISRDDHKNMVYLRMNSLKSEDTALYYCAIVRGCKDHDAYADVRARGQGTQVTVSS
notes: also called 针对前列腺特异性膜抗原的单域重链抗体阳性克隆; 展示本发明所述纳米抗体的噬菌体克隆; not shown: the fusion to the phage coat protein is not described
As for B1, the binding result (in assay [1]; with 重组表达的PSMA胞外区蛋白) was “binds” each time.
